According to PMC3718800, “Structural and Functional Perturbation of Giardia lamblia Triosephosphate Isomerase by Modification of a Non-Catalytic, Non-Conserved Region” (PLoS ONE, 2013):

Test: TIM activity coupled assay, kinetic constants of WT GlTIM and C222 mutants with GAP
Type: biochemical, Giardia lamblia
Protocol: Glyceraldehyde 3-phosphate (GAP), buffers, salts and all the other analytical grade reagents were acquired from Sigma–Aldrich; α-glycerol-3-phosphate dehydrogenase (α-GDH) was from Roche, crystallization screen kits were obtained from Hampton Research. Restriction enzymes, DNA polymerase and T4 DNA ligase were purchased from New England BioLabs and Invitrogene. Oligonucleotide synthesis and DNA sequencing was performed at the Unidad de Biología Molecular, Instituto de Fisiología Celular, UNAM. Protein concentration was determined by the bicinchoninic acid method or by absorbance at 280 nm for pure GlTIM (ε280 = 26600 M^-1cm^-1). The TIM activity was determined at 25°C by a coupled assay, following the decrease in absorbance at 340 nm. The standard reaction mixture contained 100 mM triethanolamine/10 mM EDTA, pH 7.4 (TE buffer), 1 mM GAP, 0.2 mM NADH, and 0.9 units of α-GDH (20 μg/mL); the reaction was initiated by addition of 5 ng/mL of WT, C222V or C222M GlTIM, 10 ng/mL of C222N, 20 ng/mL of C222D or C222F, and 200 ng/mL of C222K. Kinetic, binding and stability data were analyzed by non-linear regression calculations with Origin software.
Determination of Km and Vmax was performed by fitting initial velocity data at GAP concentrations ranging from 0.3 to 3 mM to the Michaelis-Menten equation (v = Vmax•S/Km+S) by non-linear regression calculations. […]

B1: GlTIM: recombinant wild type triosephosphate isomerase of Giardia lamblia (protein, UniProt P36186 1-257, looked up)
Triosephosphate isomerase: MPARRPFIGGNFKCNGSLDFIKSHVAAIAAHKIPDSVDVVIAPSAVHLSTAIAANTSKQLRIAAQNVYLEGNGAWTGETSVEMLQDMGLKHVIVGHSERRRIMGETDEQSAKKAKRALEKGMTVIFCVGETLDERKANRTMEVNIAQLEALGKELGESKMLWKEVVIAYEPVWSIGTGVVATPEQAEEVHVGLRKWFAEKVCAEGAQHIRIIYGGSANGSNCEKLGQCPNIDGFLVGGASLKPEFMTMIDILTKTRT
With B1 the Vmax (GAP 0.3 to 3 mM, 25°C, pH 7.4) was 8050 ± 444 µmol/min/mg and the “kcat x 10^5” value (calculated from Vmax, molecular mass 27.7 kDa) was 4.4 x 10^5 min^-1.
